Measurements as given in article PMC9197780.

Key:
Test in all cases: SPR
ADI-56046 (human) = target: ADI-56046 (human)
CB6 (human) = target: CB6 (human)
P17 (human) = target: P17 (human)
C105 (human) = target: C105 (human)
B38 (human) = target: B38 (human)
P2B-2F6 (human) = target: P2B-2F6 (human)

Substance: SARS-CoV-2 Omicron BA.1.1 RBD protein with His-tag, spike residues 319-541 (from UniProt P0DTC2 319-541) (domain or fragment)
- Kd (ADI-56046 (human)): 1500 nM

Substance: SARS-CoV-2 Omicron BA.1 RBD protein with His-tag, spike residues 319-541 (from UniProt P0DTC2 319-541) (domain or fragment)
- Kd (ADI-56046 (human)): 2300 nM

Substance: SARS-CoV-2 Omicron BA.3 RBD protein with His-tag, spike residues 319-541 (from UniProt P0DTC2 319-541) (domain or fragment)
- Kd (CB6 (human)): > 500 nM
- Kd (P17 (human)): 3500 nM
- Kd (ADI-56046 (human)): 18000 nM
- Kd (C105 (human)): > 500 nM
- Kd (B38 (human)): > 500 nM

Substance: SARS-CoV-2 Omicron BA.2 RBD protein with His-tag, spike residues 319-541 (from UniProt P0DTC2 319-541) (domain or fragment)
- Kd (P2B-2F6 (human)): 5100 nM
